Test results from publication PMC8406324.

Molecular target: HTNV Gn as incorporated in virus-like particles (Hantaan virus (HTNV))
Assay: cryo-EM structure

“HTNV Gn as incorporated in virus-like particles (natural protein)” showed a stoichiometry N of 4.
